# The RNAGym collection of RNA variant scans (doi:10.1093/nar/gkz1192)
# B1: CPEB3 Ribozyme (parent)
# chain: UAACAGGGGGCCACAGCAGAAGCGUUCACGUCGCAGCCCCUGUCAGAUUCUGGUGAAUCUGCGAAUUCUGCUGUAUAUCUC
# Variants of: B1
# Experiment: self-cleavage, relative activity (ratio to wild type); higher = more cleavage; in vitro, sequencing
# Procedure, shortened: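 CPEB3 self-cleaving ribozyme mutant libraries were made by rounds of error-prone PCR, barcoded, and transcribed in vitro with T7 RNA polymerase for 5 hours at 37°C. Cleavage occurred during transcription and a 15 min DNase I step before EDTA stop. RNAs were reverse transcribed with template switching and Illumina-sequenced, with DNA sequencing mapping barcodes to variants. Relative activity is the variant's cleaved/total read fraction divided by wild type's (minimum 5 reads), averaged across three batches.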
row,Variant,self-cleavage
1,G8U U31A,0.18
2,G8U U31C,0.11
3,G7C U67C,0.19
4,G8C U54C,0.44
5,G8U U67A,0.19
6,G8U U67C,0.23
7,G8U G36A,0.1
8,G8U A35U,0.27
9,G8A A77G,0.23
10,G8A A77C,0.09
11,G8A A77U,0.18
12,G8U C40U,0.11
13,G8A C27U,0.08
14,G8A C37U,0.05
15,G8A C37A,0.15
16,G7U A13U,0.34
17,G7U A13G,0.18
18,G8A A35G,0.5
19,G8A A35U,0.14
20,G8A A35C,0.21
21,G8A G70A,0.05
22,G7U A20U,0.11
23,G7U A20G,0.27
24,G8A U76A,0.49

row,Variant,self-cleavage
1,G8A C79A,0.18
2,G8A A56C,0.24
3,G8A A56G,0.24
4,G8A A56U,0.38
5,G8C G36C,0.15
6,G8A U43A,0.27
7,G8A U43C,0.14
8,G8A U69C,0.19
9,G8A U69A,0.28
10,G8A U69G,0.28
11,G8C U76C,0.4
12,G7U,0.25
13,G7C G30U,0.14
14,G7C G9U,0.36
15,G7C G9A,0.23
16,G8A U26A,0.19
17,G8A U26C,0.13
18,G7U G42U,0.14
19,G8A U67G,0.48
20,G8A U67A,0.26
21,G8A U67C,0.22
22,G7U C62U,0.21
23,G7U C62G,0.17
24,G7U A75U,0.13

row,Variant,self-cleavage
1,G7U A75G,0.2
2,G8A U58C,0.2
3,G8U A28U,0.09
4,G8U A28G,0.14
5,G7U U78C,0.13
6,G7U U78A,0.48
7,G8U U60G,0.06
8,G8U U60C,0.17
9,G8U U60A,0.07
10,G8U U41G,0.39
11,G8U U41A,0.19
12,G8U U41C,0.12
13,G7C C50A,0.29
14,G8A A13U,0.3
15,G8A A13G,0.44
16,G8U G22A,0.12
17,G7U U31A,0.07
18,G7U U31C,0.15
19,G7C U60C,0.2
20,G8U C59U,0.1
21,G7U C39U,0.19
22,G7U A56G,0.23
23,G7U A56U,0.16
24,G7C U72G,0.27

row,Variant,self-cleavage
1,G7C U72C,0.37
2,G8U A45G,0.14
3,G8U G55U,0.2
4,G8A U31G,0.41
5,G8A U31A,0.18
6,G8A U31C,0.24
7,G8C U66C,0.41
8,G8U A15U,0.4
9,G8U A15G,0.24
10,G8A U80C,0.19
11,G8A U80A,0.29
12,G7C U25C,0.27
13,G7C U25A,0.27
14,G8U U72C,0.15
15,G8U U72A,0.07
16,G7U A64G,0.14
17,G7U A64U,0.13
18,G7U A64C,0.13
19,G8A U74C,0.35
20,G8A U74A,0.25
21,G8A A47G,0.23
22,G8A A47U,0.2
23,G7U A18G,0.19
24,G7U C50A,0.06

row,Variant,self-cleavage
1,G8A A64U,0.27
2,G8A A64G,0.22
3,G8U G9A,0.33
4,G8C G33A,0.06
5,G7U U74C,0.46
6,G7U U74A,0.22
7,G8U C37U,0.17
8,G8A G42A,0.1
9,G7U U26A,0.21
10,G7U U26C,0.15
11,G7C U43C,0.36
12,G7C U43A,0.24
13,G8C C23A,0.3
14,G7U G24A,0.22
15,G7U A35U,0.38
16,G7U A35G,0.14
17,G8C A21G,0.06
18,G8C A13U,0.16
19,G8C A18G,0.27
20,G8C A18U,0.23
21,G7U A57G,0.19
22,G8A C59A,0.06
23,G8U A47G,0.13
24,G8A C62A,0.07

row,Variant,self-cleavage
1,G8A C62U,0.22
2,G8A C50U,0.12
3,G8C U80G,0.24
4,G8A U78C,0.35
5,G8A U78A,0.37
6,G8U A65G,0.34
7,G8U A65U,0.43
8,G8U G33U,0.1
9,G8U G33A,0.08
10,G8U C12U,0.3
11,G7C U31A,0.25
12,G7C U31C,0.41
13,G7U C37G,0.53
14,G7U C37A,0.17
15,G8U U58C,0.1
16,G8U U58A,0.32
17,G8A U41A,0.07
18,G8A U41C,0.32
19,G7U G73U,0.23
20,G8C U58C,0.21
21,G8A C34U,0.39
22,G8C U51A,0.12
23,G7C U66C,0.5
24,G8U A64G,0.2

row,Variant,self-cleavage
1,G8U A64U,0.08
2,G8U A64C,0.12
3,G8U U25C,0.12
4,G8A C17U,0.25
5,G8C A57G,0.52
6,G8C G55A,0.37
7,G8U G46U,0.19
8,G8C C27A,0.19
9,G8U C11U,0.1
10,G8A C23A,0.06
11,G8A C23U,0.07
12,G7U U58C,0.2
13,G7U U58A,0.25
14,G7C U54C,0.34
15,G7C U54A,0.22
16,G7C U49A,0.26
17,G8C A65G,0.38
18,G8A G22A,0.27
19,G8A U51A,0.24
20,G8A U51G,0.09
21,G8A U51C,0.21
22,G8A G73A,0.18
23,G8A U48C,0.15
24,G8A U48G,0.37

row,Variant,self-cleavage
1,G8A U48A,0.27
2,G7U G36C,0.14
3,G8U U51C,0.08
4,G8U U51A,0.08
5,G7U G30A,0.16
6,G8U C62U,0.12
7,G8A A21G,0.28
8,G8A C12G,0.09
9,G8C G52A,0.31
10,G8U A56U,0.14
11,G8U C38U,0.04
12,G7U C79A,0.28
13,G8A C44U,0.08
14,G8A C44A,0.26
15,G8U G73C,0.5
16,G7C U48C,0.4
17,G7U U25A,0.15
18,G7U U25C,0.2
19,G8A C29U,0.24
20,G8A U25C,0.26
21,G8A U25A,0.05
22,G7U U80C,0.27
23,G8A G52A,0.3
24,G8A U54A,0.08

row,Variant,self-cleavage
1,G8A U54C,0.14
2,G8A U49C,0.2
3,G8A U49A,0.25
4,G8A U66C,0.12
5,G8C A28G,0.22
6,G8A A45G,0.29
7,G8A A45U,0.06
8,G8U U69A,0.12
9,G8U U69C,0.09
10,G8A C68A,0.2
11,G7C U51C,0.28
12,G8U C39U,0.08
13,G8U G63A,0.07
14,G8U C29U,0.25
15,G8U U26A,0.07
16,G8U U26C,0.14
17,G8C U31C,0.38
18,G8C U31G,0.34
19,G7C G24C,0.15
20,G7U A45U,0.14
21,G7U A45G,0.22
22,G7U A45C,0.2
23,G7U C17U,0.2
24,G7U U49C,0.11

row,Variant,self-cleavage
1,G8U G52U,0.21
2,G8U G52A,0.21
3,G8A A15U,0.16
4,G8A A15C,0.31
5,G8A A15G,0.3
6,G8U U66G,0.13
7,G7U A47C,0.37
8,G7U A47G,0.29
9,G8A C71U,0.21
10,G8A C71A,0.17
11,G7C U80C,0.27
12,G7C U80A,0.37
13,G8C C40U,0.13
14,G8U C79U,0.04
15,G7U G33A,0.11
16,G8C U78C,0.07
17,G8A A28G,0.23
18,G8A A28U,0.14
19,G8A C14U,0.08
20,G8A C14G,0.38
21,G8U A18G,0.14
22,G8U A18U,0.16
23,G8A A65U,0.06
24,G8A A65G,0.14

row,Variant,self-cleavage
1,G7U A15G,0.27
2,G7U A15U,0.23
3,G8C A64U,0.22
4,G7U U48A,0.07
5,G8A G63C,0.19
6,G8C C32U,0.2
7,G8A G30U,0.16
8,G8A G30A,0.4
9,G8A G24A,0.08
10,G8U A21U,0.17
11,G7U C29U,0.09
12,G8U U54C,0.14
13,G8U U54A,0.07
14,G8A G19A,0.06
15,G7C U69C,0.2
16,G8C A56G,0.17
17,G8U G19C,0.23
18,G7U U41C,0.21
19,G8A U72G,0.12
20,G8A U72A,0.07
21,G8A U72C,0.26
22,G8A G33U,0.07
23,G8U G24U,0.13
24,G8U G24A,0.16

row,Variant,self-cleavage
1,G8C U43C,0.4
2,G8A A57G,0.26
3,G8A A57U,0.11
4,G7U G63A,0.33
5,G8A A18U,0.07
6,G8A A18G,0.21
7,G8U C71G,0.07
8,G7U U69C,0.19
9,G7U U69A,0.2
10,G8U U49C,0.22
11,G8U U49A,0.28
12,G7U U66C,0.17
13,G8C U69C,0.22
14,G7U C34U,0.07
15,G8U U74A,0.41
16,G8C,0.27
17,G8A,0.27
18,G8U,0.23
19,G8C G73U,0.25
20,G7U U60C,0.1
21,G8A A75U,0.24
22,G8A A75G,0.21
23,G8C U67C,0.15
24,G8C U67G,0.15

row,Variant,self-cleavage
1,G8A G55A,0.06
2,G8C C38U,0.07
3,G7C U26C,0.35
4,G8U C32U,0.14
5,G8A U60C,0.23
6,G8A U60A,0.18
7,G7U U51A,0.21
8,G7U U51G,0.2
9,G7U U51C,0.28
10,G7C G61C,0.1
11,G8C U60A,0.14
12,G8C U60C,0.24
13,G8U U48C,0.38
14,G8C U26C,0.08
15,G7U A21G,0.31
16,G7U A21U,0.34
17,G7C U41C,0.2
18,G7U U72C,0.25
19,G7U U72G,0.07
20,G7U G55A,0.08
21,G8U A13G,0.28
22,G8U A13U,0.3
23,G7U U67C,0.25
24,G8A C40A,0.16

row,Variant,self-cleavage
1,G8A C40U,0.14
2,G8A C39A,0.21
3,G8A C39G,0.06
4,G7U U43A,0.09
5,G7U U43C,0.38
6,G8U G53A,0.2
7,G8U G53U,0.12
8,G8U C14U,0.06
9,G8A C38U,0.08
10,G8U A75G,0.12
11,G8U A75U,0.35
12,G7U C32U,0.07
13,G8C A15C,0.29
14,G7U U54C,0.24
15,G8C U25C,0.15
16,G8U G10A,0.39
17,G8U A20G,0.17
18,G8U A77U,0.14
19,G8A C32A,0.2
20,G7U A65G,0.4
21,G8A A20U,0.22
22,G8A A20G,0.25
